Data as given in patent US11155586B2, “Cystine knot scaffold platform” (Genentech, Inc., priority 2015, dated 2021).
Positions of bridges follow the written chain, without caps; N, C: chain ends. Residues, ends and D or L forms follow the SMILES beside them.

Target: T1, hVEGF(8-109) (Homo sapiens, UniProt P15692)
T1 construct: hVEGF(8-109) or BSA were coated on 384-well MAXISORP™ immunoplates
T1 sequence (P15692 214-315): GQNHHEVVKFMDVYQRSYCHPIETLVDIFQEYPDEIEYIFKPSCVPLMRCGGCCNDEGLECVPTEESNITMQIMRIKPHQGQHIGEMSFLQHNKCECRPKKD
Assay: Spot phage ELISA
Assay type: binding
Method: After four rounds of binding selection, individual phage clones were picked and inoculated into 450 μl 2YT media containing 50 µg/ml Carbenecillin and M13-KO7 helper phage in 96-well blocks, which were grown at 37° C. overnight. The supernatant was analyzed with spot phage ELISA as follows: hVEGF(8-109) or BSA were coated on 384-well MAXISORP™ immunoplates and phage supernatant diluted (1:3) with PBT buffer was added to the wells. The plates were washed and bound phage was detected with anti-M13-HRP followed by TMB substrate. In these assays, phage binding to BSA alone was tested in parallel to assess background binding. Clones whose binding signals for hVEGF-A (8-109) were more than 3 times higher than to BSA (background) were considered positive. Positive clones were subjected to DNA sequence analysis.

[1] = loop 2 variants based on VEGF_CKP9.63 framework, Table 27

GCDVMQPYWGCGQDLTCLAGCVCHWYNSCG [VEGF_CKP9.63.50]
S/N (signal to noise ratio as compared to BSA control) (Table 27): 12.7 | ELISA [1]: 0.9

GCDVMQPYWGCGENLACLAGCVCHWYNSCG [VEGF_CKP9.63.54]
S/N (signal to noise ratio as compared to BSA control) (Table 27): 19.9 | ELISA [1]: 1.4

CC(C)C[C@@H]1NC(=O)[C@@H]2CSSC[C@H](NC(=O)CNC(=O)[C@H](Cc3c[nH]c4ccccc34)NC(=O)[C@H](CC(C)C)NC(=O)[C@@H]3CCCN3C(=O)[C@H](CCC(=O)O)NC(=O)[C@H](Cc3ccccc3)NC(=O)[C@H](CC(C)C)NC(=O)[C@H](CCCCN)NC(=O)[C@@H](NC(=O)CN)CSSC[C@@H](C(=O)N[C@H](C(=O)N[C@H]3CSSC[C@@H](C(=O)NCC(=O)O)NC(=O)[C@H](CO)NC(=O)[C@H](CCC(=O)O)NC(=O)[C@H](Cc4ccc(O)cc4)NC(=O)[C@H](Cc4c[nH]c5ccccc45)NC(=O)[C@H](CCCNC(=N)N)NC3=O)C(C)C)NC(=O)CNC(=O)[C@H](C)NC1=O)C(=O)N[C@@H](CCCCN)C(=O)N[C@@H](CCC(N)=O)C(=O)N[C@@H](CC(=O)O)C(=O)N[C@@H](CO)C(=O)N[C@@H](CC(=O)O)C(=O)N2 [VEGF_CKP9.96] (H-GCKLFEPLWGCKQDSDCLAGCVCRWYESCG-OH; disulfide 2-21, 11-17, 23-29; N-terminus and C-terminus assumed)
S/N (signal to noise ratio as compared to BSA control) (Table 24): 18.4 | ELISA (VEGF_CKP9 Loop1/Loop5 affinity-matured variants, Table 24): 1.2

GCDVMQPYWGCGDDLECLAGCVCHWYNSCG [VEGF_CKP9.63.14]
S/N (signal to noise ratio as compared to BSA control) (Table 27): 21.3 | ELISA [1]: 1.5

GCDVMQPYWGCDGDYQCLAGCVCHWYNSCG [VEGF_CKP9.63.18]
S/N (signal to noise ratio as compared to BSA control) (Table 27): 17.3 | ELISA [1]: 2.3

CC(C)C[C@@H]1NC(=O)[C@@H]2CSSC[C@@H](C(=O)NCC(=O)O)NC(=O)[C@H](Cc3ccccc3)NC(=O)CNC(=O)[C@H](CC(N)=O)NC(=O)[C@@H]3CCCN3C(=O)CNC(=O)[C@@H]3CSSC[C@H](NC(=O)[C@H](Cc4ccc(O)cc4)NC(=O)[C@H](CCC(N)=O)NC(=O)[C@H](CCCCN)NC(=O)[C@H](Cc4ccccc4)NC(=O)[C@H](CCCNC(=N)N)NC(=O)[C@H]([C@@H](C)O)NC(=O)[C@H]([C@@H](C)O)NC(=O)[C@@H]4CCCN4C(=O)[C@@H](NC(=O)CN)CSSC[C@H](NC(=O)CNC(=O)[C@H](C)NC1=O)C(=O)N[C@@H](C(C)C)C(=O)N3)C(=O)N[C@@H](CCCCN)C(=O)N[C@@H](CCC(N)=O)C(=O)N[C@@H](CC(=O)O)C(=O)N[C@@H](CO)C(=O)N[C@@H](CC(=O)O)C(=O)N2 [VEGF_CKP6] (H-GCPTTRFKQYCKQDSDCLAGCVCGPNGFCG-OH; disulfide 2-21, 11-23, 17-29; N-terminus and C-terminus assumed)
S/N (signal to noise ratio as compared to BSA control) (Table 19): 51.9 | ELISA (spot phage ELISA signal, EETI-II-based binders against hVEGF-A, Table 19): 3.5

GCDVMQPYWGCGMDIECLAGCVCHWYNSCG [VEGF_CKP9.63.16]
S/N (signal to noise ratio as compared to BSA control) (Table 27): 10.3 | ELISA [1]: 2.2

GCDVMQPYWGCAGDFECLAGCVCHWYNSCG [VEGF_CKP9.63.42]
S/N (signal to noise ratio as compared to BSA control) (Table 27): 23.1 | ELISA [1]: 1.7

GCDVMQPYWGCGNDVSCLAGCVCHWYNSCG [VEGF_CKP9.63.24]
S/N (signal to noise ratio as compared to BSA control) (Table 27): 20.4 | ELISA [1]: 1.6

GCDVMQPYWGCGVDMTCLAGCVCHWYNSCG [VEGF_CKP9.63.15]
S/N (signal to noise ratio as compared to BSA control) (Table 27): 21.4 | ELISA [1]: 1.5

GCDVMQPYWGCDGDFDCLAGCVCHWYNSCG [VEGF_CKP9.63.39]
S/N (signal to noise ratio as compared to BSA control) (Table 27): 18.9 | ELISA [1]: 1.6

GCDVMQPYWGCGNSFECLAGCVCHWYNSCG [VEGF_CKP9.63.47]
S/N (signal to noise ratio as compared to BSA control) (Table 27): 20.7 | ELISA [1]: 1.7
